# Data as given in the nanobody polyreactivity screen of Harvey et al. (2022).
# Experiment: yeast display, Sf9 membrane polyspecificity reagent, FACS + sequencing; frameworks hold sequencing errors
# In short: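 Genes from sorted yeast were amplified by colony PCR, read by MiSeq 2 × 250 sequencing and filtered on CDR length. These cells carried a synthetic nanobody library in Saccharomyces cerevisiae BJ5465 and were sorted by FACS into low and high (top ~1%) gates on anti-HA and streptavidin fluorescence. Polyreactivity is labelled according to the gate of origin.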
row,Sequence,polyreactivity (PSR sort gate)
1,QVQLVESGGGLVQAGGSLRLSCAASGRTIASYAMGWYRQAPGKERELVAAITSGGSTYYADSVKGRFTISRDNAKNTVYLQMNSLKPEDTAVYYCAAYVRPAYYAIHVDYWGQGTQVTVSS,low polyreactivity
2,QVQLVESGGGLVQAGGSLRLSCAASGRTIGPYVMGWYRQAPGKERELVAAITYIGDRTYYADSVKGRFTISRDNAKNTVYLQMNSLKPEDTAVYYCNADFFSRWGYRYMDYWGQGTQVTVSS,low polyreactivity
3,QVQLVESGGGLVQAGGSLRLSCAASGRTIGTYAMGWYRQAPGTERELVAAIRSNAGSTYYADSVKGRFTISRDNGKNTVYLQMNSLKPEDTAVYYCAKSYRSSRRYNYWGQGTQVTVSS,high polyreactivity
4,QVQLVESGGGLVQAGGSLRLSCAASGRTIGYYAMGWYRQAPGKERELDAAITRSGGSTYYADSVKGRFTISRDNAKNTVYLQMKSLKPEDTAVYYCATYSVSGKPLGYWGHGTQVTVSS,low polyreactivity
5,QVQLVESGGGLVQAGGSLRLSCAASGRTIKVYAMGWYRQAPGKERELVAAISYSGAGTRYADSVKGRFTISRDNAKNTVYLQMNSLKPEDTAVYYCNTDAWARVKRYEYWGQGTQVTVSS,low polyreactivity
6,QVQLVESGGGLVQAGGSLRLSCAASGRTILLNDMGWYRQAPGKERELVAGITRSGGSTYYADSVKGRFTISRDNAKNTVYLQMNSLKPEDNAVYYCAADFKPLYYDEYDYWGQGTQVTVSS,low polyreactivity
7,QVQLVESGGGLVQAGGSLRLSCAASGRTINRYAMGWYRQAPGKERELVAVITSDGRTNYADSVKGRFTISRDNAKNTVYLQMNSLKPEDTAVYYCNKRSALSFVYDFDYWGQGTQVTVSS,low polyreactivity
8,QVQLVESGGGLVQAGGSLRLSCAASGRTIPAYTMGWYRQAPGKERELVAAINWSGGSTYYADSVKARFTISRDNAKNCVYLQMISLNPEDTAVYYCARTSRYYGFRSYGTLDYWGQGTQVTVSS,high polyreactivity
9,QVQLVESGGGLVQAGGSLRLSCAASGRTIPWNVMGWYRQAPGKERELVATITSRRTSTNYADSVKARFTISRDNAKNTVYLPMNSLKPEDTAVYYCARRTVWGAGHYYYWGQGTQVTVSS,high polyreactivity
10,QVQLVESGGGLVQAGGSLRLSCAASGRTIRENVMGWYRQAPGKERELVAAITGNDGTTYYADSVKGRFTISRDNAKNTVYLQMNSLKPEDTAVYYCAARPYLGYIGYDYWGQGTQVTVSS,low polyreactivity
11,QVQLVESGGGLVQAGGSLRLSCAASGRTIRHNAMGWYRQARGKERELVGAISRSGGATYYADSVKGRFTISRDNAKNTVYLQMNSLKPEDTAVYYCAAGYHIIYTPEYYYWGQGTQVTVSS,high polyreactivity
12,QVQLVESGGGLVQAGGSLRLSCAASGRTIRYYTMGWYRQAPGKEREFVAAISSTGGTYYADSVKGRFTISRDNAKNTVYLQMNSLKPEDTAVYYCAATFIQVVVNVQLYDYDYWGQGTQVTVSS,low polyreactivity
13,QVQLVESGGGLVQAGGSLRLSCAASGRTISHNAMGWYRQPPGKESELVAAISSGGGSTYYGDSVKGRFTISRDNAKNTVYVQMNSLKPEDTAVYYCAAPSYGRSRGFGLGINKYDYWGQGTQVTVSS,high polyreactivity
14,QVQLVESGGGLVQAGGSLRLSCAASGRTITRNAMGWYRQAPGKERELVASINRGGITYYADSVKGRFTISRDNAKNTVYLQMNSLKPEDTAVYYCATRPWRSPWGYYDYWGQGTQVTVSS,high polyreactivity
15,QVQLVESGGGLVQAGGSLRLSCAASGRTITWNAMGWYRQAPGKERELVADITNNGGSTYYADSVKGRFTISRDNAKNTVYLQMNSLKPEDTAVYYCAKRRNYWFSFDYWGQGTQVTVSS,low polyreactivity
16,QVQLVESGGGLVQAGGSLRLSCAASGRTIWTYVMGWYRQAPGKERELVAAISRSGSSTYYADSVKGRFTISRDNAKNTVYLQMNSLKPEDTAVYYCAASSPWEQSHDQFYYWGQGTQVTVTS,low polyreactivity
17,QVQLVESGGGLVQAGGSLRLSCAASGRTIWVYTMGWYRQAPGKERELVATINYRGGSTYYADSVKGRFTISRDNAKNTVYLQMNSLKPEDTAVYYCAADYSPPYPRYPYDYWGQGTQVTVSS,high polyreactivity
18,QVQLVESGGGLVQAGGSLRLSCAASGRTIWYYAMGWYRQAPGKERELVASITRSGGSTYADSVKGRFTISRDNAKNTVDLQMNSLKPEDTAVYYCAATRPRIPVYQNNYGYWGQGSQVTVSS,high polyreactivity
19,QVQLVESGGGLVQAGGSLRLSCAASGRTIYRYALGWYRQAHGKERELVSRIRSGGSTNYADSVKGRFTISRDNAKNTVYLQMNSLKPEDTAVYYCAARVLDLGKNTYYRYALGYWGQGTQVTVSS,high polyreactivity
20,QVQLVESGGGLVQAGGSLRLSCAASGRTIYYYAMGWYRQAPGKEREFVAAISWHGGSTYYADSVKGRFTISRDNAKNTVYLQMNSLKPEDTAVYYCAADIYLRGFHYDYWGQGTQVTVSS,low polyreactivity
21,QVQLVESGGGLVQAGGSLRLSCAASGRTLAGNAMGWYRQAPGQERELVAAISQGGGSTYYADSVKGRFTISRDKAKNTVYLQMNSLKPEDTAGYYCAAEIPRLWASFATLWYDYWGQGTQVTVSS,low polyreactivity
22,QVQLVESGGGLVQAGGSLRLSCAASGRTLAPYAMGWYRQAPGKARELVADIDRGGGSTYYADSVKGSFTISRDNAKNTVYLQMNSLKPEDTAVYYCNVDEPGVLVAYSLDFWGQGSQVTVSS,low polyreactivity

row,Sequence,polyreactivity (PSR sort gate)
1,QVQLVESGGGLVQAGGSLRLSCAASGRTLAPYAMGWYRQAPGKERELVAISTIGGSTYYADSVKGRFTISRDNAKNTVYLQMNSLKPEDTAVYYCAADGNSTGVYLDGGEGFAYDYWGQGTQVTVSS,low polyreactivity
2,QVQLVESGGGLVQAGGSLRLSCAASGRTLARNAMGWDRQAPGKERELVASINGRTTRTYYADSVKGRFTISRDNAKNTVYLQMNSLKPEDTAVYYCAADPPGYVYGKRYYWGQGTQVTVSS,high polyreactivity
3,QVQLVESGGGLVQAGGSLRLSCAASGRTLARNAMGWYRQAPGKEREFVASINGRTTRTYYADSVKGRFTISRDNAKNTVYLQMNSLKPEDTAVYYCAADPPGYVYGKRYYWGQGTQVTVSS,high polyreactivity
4,QVQLVESGGGLVQAGGSLRLSCAASGRTLARNAMGWYRQAPGKERELVASINGRTTRTYYADSVKGRFTISRDNAKNTVYLQMNSLKPADTAVYYCAAAVRYRKYNYWGQGTQVTVSS,high polyreactivity
5,QVQLVESGGGLVQAGGSLRLSCAASGRTLDKYTLGWYRQAPGKERELVASITSGGSTNYADSVKGRFTISRDNAKNTVYLQMNTLKPEDTAVYYCNKRRRVSKMGQGYDYWGQGTQVTVTS,low polyreactivity
6,QVQLVESGGGLVQAGGSLRLSCAASGRTLDKYTMGGYRQAPGKERELVASITSGGSTNYADSVKGRFTISRDNAKNTVYLQMNSLKPEDTAVYYCASGNWVLWNPGYDYWGQGTQVTVSS,low polyreactivity
7,QVQLVESGGGLVQAGGSLRLSCAASGRTLDVNAMGWYRQAPGKEKELVAAIDWGVGTTYYADSVKGRFTISRDNAKNTVYLQMNSLKPEDTAVYYCSVDVYYSVYGYPVQYYYWGQGNQVTVSS,high polyreactivity
8,QVQLVESGGGLVQAGGSLRLSCAASGRTLFPYAMGWYIQAPGKERELVAAITSRGTSTYYADSVKGRFTISRDIAKNNVYLQMNSLKPEDTAVYYCAKDGWFWGWRFDYCGQGTQVTVSS,low polyreactivity
9,QVQLVESGGGLVQAGGSLRLSCAASGRTLFYYTMGWYRQAPGKERELVAAITTGGRTYYADSVKGRFTISRDNAKNTVYLQMNSLKPEDTAVYYCAAHTYYYPVGFNYWGQGTQVTVSS,low polyreactivity
10,QVQLVESGGGLVQAGGSLRLSCAASGRTLFYYTMGWYRQAPGKVRELVAAITTGGRTYYADSVKGRFTISRDNAKNTVYLQMNSLNPEDTAVYYCAAHTYYYPVGFNYWGPGTQVTVSS,low polyreactivity
11,QVQLVESGGGLVQAGGSLRLSCAASGRTLGANAMGWYRQAPGKERELVAAITDSGGSTYYADSVKGRFTISRDNAKNTVYLQMNSLKPEDTAVYYCAAKQAYSSTYVWPIFDYWGQGTQVTVSS,low polyreactivity
12,QVQLVESGGGLVQAGGSLRLSCAASGRTLGWYAMGWYRQAPGKERELVATISITGGSTYYADSVKGRFTISRDNAKNTVYLQMNSLKPEDTAVYYCAARHGSRRRYYYWGQGTQVTVSS,high polyreactivity
13,QVQLVESGGGLVQAGGSLRLSCAASGRTLHAYTMGWYRQAPGKERELVAAITRGGGNTYYADSVKGRFTISRDNAKNTVYLQMNSLKPEDTAVYYCAKDYGYQGHTRTLYWAYLEYDYWGQGTQVTVSS,low polyreactivity
14,QVQLVESGGGLVQAGGSLRLSCAASGRTLHYYAMGWYRQAPGKERELVAAISRTGSTDYADSVKGRFTISRDNAKNTVYLQMNSLKPEDTAVYYCAAYYRYRSGRYYYWGQGTQVTVSS,high polyreactivity
15,QVQLVESGGGLVQAGGSLRLSCAASGRTLIYNAMGWYRQAPGKERELVAAITGGGGRTYYADSVKGRFTISRDNAQNTVYLQMNSLKPEDTAVYYCAAGETFEMNYWGQGTQVTVSS,low polyreactivity
16,QVQLVESGGGLVQAGGSLRLSCAASGRTLKWYAMGWDRQAPGKERELVAAISWSGGSTYYADSVKGRFTISRDNAKNTVYLQMNSLKPEDTSVYYCAVAVTSYSSKKLYYWGQGTQVTVSS,low polyreactivity
17,QVQLVESGGGLVQAGGSLRLSCAASGRTLKYNAMGWYRQAPGKERELVAAISYSGSSTYYADSVNGRFTISRDKAKHTVYLQMNSLKPEDTEVYYCNTARPTAAYDYWGQGTQVTVSS,low polyreactivity
18,QVQLVESGGGLVQAGGSLRLSCAASGRTLLYYAMGWYRQAPGKERELVAAISRSGGSTSYADSVKGRFTISRDNAKNTVYLQMNSLKPEDTAVYYCNAPRYYYWGQGTQVTVSS,high polyreactivity
19,QVQLVESGGGLVQAGGSLRLSCAASGRTLPGYVMGWYRQEPGKERELVSTISSGDRTNYADSVKGRFTISRDNAKNTVYLQMNSLKPEETAVYYCAAPYVASGYYIWSPWLYDSWGQGTQVTVSS,low polyreactivity
20,QVQLVESGGGLVQAGGSLRLSCAASGRTLPVYAMGWYRQAPGKERELVAAITYSGGSTSYADYVKGRFTISRDNAKNTVYLQMNTLKPDDTAVYYCAAGYRYSEYYYWGQGTQVTVSS,low polyreactivity
21,QVQLVESGGGLVQAGGSLRLSCAASGRTLQGYAMGWYRQAPGKERELVAAISRGGGSTYADSVKGRFTISRDNAKNTVYLQMNSLKPEDTAVYYCAAVRGIYGGHYFRYEYWGQGTQVTVSS,high polyreactivity
